Where a chain is given by its changes, count along the chain named. Blank lines part the entries; values can stand above or below the molecule they belong to.
Molecular target: T1, rat CaSR (rCaSR) (Rattus norvegicus, UniProt P48442)
T1 construct: mGlu5 signal peptide (N); expressed in transfected cells; host or cells: HEK293A, transient transfection
T1 sequence (P48442 20-1079): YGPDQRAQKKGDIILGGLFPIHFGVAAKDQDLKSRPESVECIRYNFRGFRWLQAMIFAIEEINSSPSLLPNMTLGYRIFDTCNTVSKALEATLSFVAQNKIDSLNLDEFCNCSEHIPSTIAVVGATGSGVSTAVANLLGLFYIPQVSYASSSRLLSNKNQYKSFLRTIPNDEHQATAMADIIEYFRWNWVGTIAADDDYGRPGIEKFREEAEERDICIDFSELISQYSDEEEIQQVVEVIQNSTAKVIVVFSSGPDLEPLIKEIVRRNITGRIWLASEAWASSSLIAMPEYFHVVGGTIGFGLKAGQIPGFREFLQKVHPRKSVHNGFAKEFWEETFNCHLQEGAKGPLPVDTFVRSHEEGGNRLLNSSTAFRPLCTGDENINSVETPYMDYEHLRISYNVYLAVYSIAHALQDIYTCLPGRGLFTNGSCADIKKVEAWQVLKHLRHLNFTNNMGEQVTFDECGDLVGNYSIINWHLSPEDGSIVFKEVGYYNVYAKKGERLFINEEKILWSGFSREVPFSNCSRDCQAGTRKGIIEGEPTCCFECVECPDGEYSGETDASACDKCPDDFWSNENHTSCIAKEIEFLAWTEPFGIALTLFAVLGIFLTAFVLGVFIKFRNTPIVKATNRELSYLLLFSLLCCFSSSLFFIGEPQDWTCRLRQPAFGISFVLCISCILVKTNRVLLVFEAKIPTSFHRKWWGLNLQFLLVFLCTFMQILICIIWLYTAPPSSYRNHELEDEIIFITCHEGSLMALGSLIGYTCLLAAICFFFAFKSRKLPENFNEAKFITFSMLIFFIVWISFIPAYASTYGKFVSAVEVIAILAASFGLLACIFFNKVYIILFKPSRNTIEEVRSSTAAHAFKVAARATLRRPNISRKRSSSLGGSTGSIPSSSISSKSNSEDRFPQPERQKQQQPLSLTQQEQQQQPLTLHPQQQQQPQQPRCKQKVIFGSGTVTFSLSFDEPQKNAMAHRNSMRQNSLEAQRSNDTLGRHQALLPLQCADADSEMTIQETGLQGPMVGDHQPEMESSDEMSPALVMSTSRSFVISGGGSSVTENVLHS
Test: IP1 accumulation assay, HEK293A cells transiently transfected with HA-rCaSR WT
Type: cell-based
Details: IP1 accumulation at EC20 Ca2+
Source text: The rat and human CaSR orthologs have an overall sequence identity of 93.6% and an ECD sequence identity of 95.7% (SEQ ID NO:1 aligned with SEQ ID NO:2). Thus, differences in CaSR nanobody activity are unlikely to be observed. […] Besides CaSR Nb36, similar results were obtained among the nanobodies that originate from the same family (FIGS. 7E and 7F). For Nb36, the increase in maximum response relative to Nb4 and Nb11 previously observed with human CaSR was absent (FIGS. 7C and 7F). The binding site of these nanobodies still remains to be found. The difference in CaSR Nb36 maximum response and the high interspecies sequence identity could bring us one step closer to finding the binding site for CaSR Nb4, Nb11 and Nb36.
All cell lines utilized in this study were grown at 37° C. and 5% CO2. The HEK293A (RRID: CVCL_6910) and stable Flp-In HEK293 cells were cultured in Dulbecco's Modified Eagle Medium (DMEM, #31966021) supplemented with 10% dialyzed Fetal Bovine Serum (dFBS) and 1% 10,000 units/mL penicillin and 10,000 μg/mL streptomycin mixture (pen/strep). The stable Flp-In CHO cells were cultured in F-12K medium (#21127022) supplemented with 10% dFBS and 1% pen/strep. Additionally, the stable Flp-In HEK293 and Flp-In CHO cell lines were cultured in the presence of respectively 200 and 500 μg/mL hygromycin B. For pharmacological characterization, Flp-In HEK293 HA-hCaSR WT cells were seeded in poly-D-lysine-coated clear 96 well tissue culture plates (Corning, Corning, N.Y., USA) at a density of 50,000 cells/well 18 h prior to assay. Experiments with HA-rCaSR WT and HA-hCaSR S170A required transient transfection of HEK293A cells 24 h prior to assay. DNA construct and Lipofectamine 2000 were diluted in Opti-MEM and mixed together after 5 minutes incubation at room temperature. For HA-rCaSR WT, 30 ng/well rCaSR DNA diluted in 25 μL/well Opti-MEM was mixed with 0.25 μL/well Lipofectamine 2000 in 25 μL/well Opti-MEM. For HA-hCaSR S170A, 40 ng/well […] DNA diluted in 25 μL/well Opti-MEM was mixed with 0.25 μL/well Lipofectamine 2000 in 25 μL/well Opti-MEM. The DNA:Lipofectamine 2000 mixtures were incubated 20 minutes at room temperature after which 50 μL/well was added to a poly-D-lysine-coated clear 96 well tissue culture plate. Next, 100 μL/well of a 400,000 cells/mL HEK293A cell solution prepared in culture media was added and the plate was placed at 37° C. and 5% CO2 (final cell density 40,000 cells/well).
Inositol monophosphate (IP1) accumulation was measured using the commercially available HTRF® IP1 accumulation kit (Cisbio Bioassays, Codolet, France) and an EnVision multimode plate reader (PerkinElmer, Waltham, Mass., USA). Unless stated otherwise, the cells were washed once with 100 μL/well assay buffer and stimulated for 30 minutes at 37° C. with 50 μL/well ligand(s) diluted in assay buffer supplemented with 20 mM LiCl. Following stimulation, the cells were washed once with 100 μL/well and lysed for 30 minutes at room temperature with 30 μL/well lysis buffer provided with the kit. The lysed cells were diluted 1:2 with assay buffer after which 10 μL/well was pipetted to a white 384-well OptiPlate (PerkinElmer, Waltham, Mass., USA). Next, 10 μL of a detection solution consisting of 2.5% IP1-d2 conjugate and 2.5% anti-IP1 antibody diluted in assay buffer was added to each well. Fluorophore emissions were measured after the plate was stored in the dark for 1 h. The 615/665 nm emission ratios measured upon excitation at 340 nm were converted to IP1 concentrations with an IP1 standard curve according to the manufacturer's instructions.

[1] = three independent experiments in triplicate

- Max. response (fold over basal ± S.E.M.), rat ortholog: 3.43 ± 0.76 fold over basal
- EC50 (three independent experiments in triplicate, read-out: Potency (pEC50 ± S.E.M.), rat ortholog (converted)): 257 nM
Molecule: COc1cccc([C@@H](C)NCCCc2ccccc2Cl)c1 [NPS R-568, reference compound]

- Max. response (fold over basal ± S.E.M.), rat ortholog: 3.03 ± 0.63 fold over basal
- Potency (pEC50 ± S.E.M.), rat ortholog [1]: 7.09 ± 0.09
B1: Nb4: llama-derived CaSR-specific nanobody acting as PAM, SEQ ID NO:5 (protein)
VHH: QVQLVESGGGLVQAGGSLRLSCAASGRTFSTYRMGWFRQGLGKEREFVAAITANGVRTFYTDSVKGRFTISRDNAKNTLYLQMNSLQPDDTAVYLCAARRKGIFTVQQAQDITDWDYWGQGTQVTVSS
modifications: CaSR Nb4

- Max. response (fold over basal ± S.E.M.), rat ortholog: 3.01 ± 0.51 fold over basal
- Potency (pEC50 ± S.E.M.), rat ortholog [1]: 6.46 ± 0.07
B2: Nb2: llama-derived CaSR-specific nanobody acting as PAM, SEQ ID NO:9 (protein)
VHH: QVQLVESGGGLVQAGSSLRLSCAASGRTFSNYRMAWFRQAPGKEREFVAVISRGGGGADYADSVKGRFTISRDNVKNTVSLQMNSLKPEDTAVYFCAARISGFSYYTSVDRYDYWGQGTQVTVSS
modifications: CaSR Nb2

- Max. response (fold over basal ± S.E.M.), rat ortholog: 2.88 ± 0.13 fold over basal
- Potency (pEC50 ± S.E.M.), rat ortholog [1]: 6.31 ± 0.07
B3: Nb15: llama-derived CaSR-specific nanobody acting as PAM, SEQ ID NO:10 (protein)
VHH: QVQLVESGGGLVQAGGSLRLSCAASGRTFNNYHMAWFRQAPGKEREFAAAISRRAGTTYYADSVKGRFTISRDNAKNTVYLQMNSLKPEDTAVYYCAADPDTYGVSYLARKYDYWGQGTQVTVSS
modifications: CaSR Nb15

- Max. response (fold over basal ± S.E.M.), rat ortholog: 2.89 ± 0.13 fold over basal
- Potency (pEC50 ± S.E.M.), rat ortholog [1]: 6.29 ± 0.02
B4: Nb10: llama-derived CaSR-specific nanobody acting as PAM, SEQ ID NO:3 (protein)
VHH: QVQLVESGGGLVQPGDSLRVSCAASGGSFRSYAMAWFRQAPGKEREFVAAMSGTYGSTIYSDSMKGRFTISRDNAKKMVYLRMNSLRPEDTAVYYCAGYYSGAYYGTPKTDYTEYDSWGQGTQVTVSS
modifications: CaSR Nb10

- Max. response (fold over basal ± S.E.M.), rat ortholog: 3.07 ± 0.39 fold over basal
- Potency (pEC50 ± S.E.M.), rat ortholog [1]: 6.00 ± 0.28
B5: Nb37: llama-derived CaSR-specific nanobody acting as PAM, SEQ ID NO:4 (protein)
VHH: B4 VHH with Q39R, S61A, P88A
modifications: CaSR Nb37

- Max. response (fold over basal ± S.E.M.), rat ortholog: 1.28 ± 0.12 fold over basal
B6: Nb5: llama-derived CaSR-specific nanobody, weakest PAM, SEQ ID NO:8 (protein)
VHH: QVQLVESGGRLVQDGGSLRLSCAASGLTFSDYSMGWFRQVPGKEREFVAVIRRSNDSTYYADFVKGRFTISRDNAKNTVYLQMNSLQPEDTAVYSCAADRGGVGLTSAQTYAYWGQGTQVTVSS
modifications: CaSR Nb5

- Max. response (fold over basal ± S.E.M.), rat ortholog: 2.90 ± 0.23 fold over basal
- Potency (pEC50 ± S.E.M.), rat ortholog [1]: 6.24 ± 0.11
B7: Nb11: llama-derived CaSR-specific nanobody acting as PAM, SEQ ID NO:6 (protein)
VHH: QVQLVESGGGLVQAGGSLRLSCAASGRTFSTYRMGWFRQGPGKEREFVAAITATGVKTYYTDSVKGRFTISRDNAKNTVYLQMNSVQPEDTAVYSCAARIKAIFTAQQAATITDYDYWGQGTQVTVSS
modifications: CaSR Nb11

- Max. response (fold over basal ± S.E.M.), rat ortholog: 3.10 ± 0.12 fold over basal
- Potency (pEC50 ± S.E.M.), rat ortholog [1]: 6.78 ± 0.03
B8: Nb36: llama-derived CaSR-specific nanobody acting as PAM, SEQ ID NO:7 (protein)
VHH: QVQLVESGGGLVQAGESLRLSCAASGRTFSSYRMGWFRQGPGKEREFVAAITATGVRTYYADSVKGRFTISRDNAKNTVYLQMNSLQPDDTAVYLCAARRKAIFSVQQALTITDYDDWGQGTQVTVSS
modifications: CaSR Nb36
